Assay [1] deals with T1, human FLT3 (Fms Related Receptor Tyrosine Kinase 3) expressed on cells (human, UniProt P36888 27-993).
T1 sequence (looked up): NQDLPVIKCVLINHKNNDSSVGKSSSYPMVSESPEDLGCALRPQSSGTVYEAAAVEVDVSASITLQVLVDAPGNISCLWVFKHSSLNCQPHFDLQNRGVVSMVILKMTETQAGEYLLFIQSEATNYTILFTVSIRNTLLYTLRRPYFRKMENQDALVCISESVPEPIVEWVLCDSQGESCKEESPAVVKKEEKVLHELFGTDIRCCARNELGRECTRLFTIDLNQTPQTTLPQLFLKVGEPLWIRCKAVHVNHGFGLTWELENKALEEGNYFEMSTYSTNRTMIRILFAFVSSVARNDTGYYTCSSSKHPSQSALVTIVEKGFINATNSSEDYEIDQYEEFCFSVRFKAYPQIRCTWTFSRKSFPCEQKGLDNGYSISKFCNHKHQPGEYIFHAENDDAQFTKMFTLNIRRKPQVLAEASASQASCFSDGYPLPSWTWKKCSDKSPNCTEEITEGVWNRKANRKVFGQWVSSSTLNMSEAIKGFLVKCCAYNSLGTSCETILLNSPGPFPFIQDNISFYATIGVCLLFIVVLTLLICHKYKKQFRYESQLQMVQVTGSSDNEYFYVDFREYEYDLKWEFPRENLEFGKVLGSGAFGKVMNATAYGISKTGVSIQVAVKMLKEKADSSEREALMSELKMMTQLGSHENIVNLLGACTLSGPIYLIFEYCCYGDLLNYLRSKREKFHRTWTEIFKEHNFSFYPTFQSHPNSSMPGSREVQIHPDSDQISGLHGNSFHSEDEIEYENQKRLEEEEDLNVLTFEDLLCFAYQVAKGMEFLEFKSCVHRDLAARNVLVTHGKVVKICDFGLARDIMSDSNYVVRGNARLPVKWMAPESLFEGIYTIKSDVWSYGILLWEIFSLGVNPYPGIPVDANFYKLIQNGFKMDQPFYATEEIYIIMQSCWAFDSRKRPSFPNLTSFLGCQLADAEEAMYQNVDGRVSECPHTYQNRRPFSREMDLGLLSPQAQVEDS
Put plainly: cell-based or functional assay.

In assay [2] the target is T1, human FLT3 (Fms Related Receptor …). Put plainly: flow cytometry on FLT3+ REH cells. An excerpt: (§1) Cells were washed five times with flow buffer and stained with anti-human IgG lambda antibody conjugated to FITC (Southern Biotech 2070-02). Cells were stained with 7-AAD (7-AAD Viability Staining Solution, Biolegend 420404) followed by flow cytometry analysis.
For orientation: Flow cytometry measures light scatter and fluorescence of single cells or particles in a stream.

Assay [3] has as its target T2, human CD3 on the surface of T cells / Jurkat cells (human, UniProt P07766 23-207; P09693 23-182; P04234 22-171).
T2 construct: whole, on cells
Put plainly: flow cytometry on CD3+ human T cells.
Text: as §1

Assay [4] deals with T3, Recombinant Human CD3 epsilon Fc Chimera Protein (R&D, no. 9850-CD-050) (human, UniProt P07766 23-126).
T3 construct: Bought reagent; Fc part of the bought chimera not given
T3 sequence (P07766 23-126, change not shown): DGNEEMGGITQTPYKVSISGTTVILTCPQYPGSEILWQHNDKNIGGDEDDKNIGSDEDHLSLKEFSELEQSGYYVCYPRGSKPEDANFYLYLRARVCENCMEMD
Put plainly: ELISA, plate coated with recombinant human CD3 epsilon Fc chimera. The method, then:
The plate was washed with wash buffer (PBS (Caisson Labs, no. PBL06)+0.05% Tween20 (ThermoFisher, no. 28320)) The plate was blocked with blocking buffer (PBS (Caisson Labs, no. PBL06)+1% (w/v) BSA (Rockland, no. BSA-50)+0.05% Tween20 (ThermoFisher, no 28320)) for two hours at room temperature (RT). Plate was washed twice with wash buffer. […] Plate was washed 4× with wash buffer. Plate was incubated with 100 μL per well of 1:200 goat anti-human lambda-HRP secondary antibody (SouthernBiotech, no. 2070-05) for one hour at RT. Plate was washed 4× with wash buffer. Plate was incubated with 100 μL per well of TMB Substrate (ThermoFisher Cat #34029) for 20 minutes protected from light. Stop solution (2N H₂SO₄) was added to each well. Absorbance of wells was recorded at 450 nm on an Envision plate reader (PerkinElmer). […] Variable slope (four parameters) curve was fit to the data and EC50 was used to compare binding affinities.

Assay [5] deals with T2, human CD3 on the surface of T cells / …. Put plainly: flow cytometry on primary human pan T cells from cord blood.
Assay [6] has the same target. Put plainly: flow cytometry on CD3-expressing Jurkat cells. The method, then: The mouse heavy and light chain variable regions of SP34 clone were humanized and two humanized variants were tested for their binding affinities to CD3 in Jurkat cells (ATCC) expressing high levels of CD3. Jurkat cells were stained with various concentrations of humanized SP34 variants 2 and 6 (variant 2 VH and VL are SEQ ID NOs: 67 and 68, respectively; variant 6 VH and VL are SEQ ID NOs: 69 and 70, respectively) antibodies prepared in PBS+2% BCS+2 mM EDTA (flow buffer). Cells were washed five times with flow buffer and stained with anti-human IgG Fc antibody conjugated to Alexa Flour 488 (Jackson Immunoresearch Laboratories, 109-095-008). Cells were stained with 7-AAD (7-AAD Viability Staining Solution, Biolegend 420404) followed by flow cytometry analysis.

The target in assay [7] is T1, human FLT3 (Fms Related Receptor …). Put plainly: flow cytometry on FLT3-expressing REH cells. An excerpt:
Cells were washed five times with flow buffer and stained with anti-human IgG Fc antibody conjugated to Alexa Fluor 488 (Jackson Immunoresearch Laboratories, 109-545-008). Cells were stained with 7-AAD (7-AAD Viability Staining Solution, Biolegend 420404) followed by flow cytometry analysis. […] The antibodies used are as described in Example 1.

Assay [8] shares this target. Put plainly: flow cytometry, chimeric antibody on FLT3-expressing REH cells.

Several values for one entry are separate records, joined by “and”; a condition that tells them apart may be missing. Identical values can stand only once.

T2 sequence (P07766 23-207, chain 1 of 3): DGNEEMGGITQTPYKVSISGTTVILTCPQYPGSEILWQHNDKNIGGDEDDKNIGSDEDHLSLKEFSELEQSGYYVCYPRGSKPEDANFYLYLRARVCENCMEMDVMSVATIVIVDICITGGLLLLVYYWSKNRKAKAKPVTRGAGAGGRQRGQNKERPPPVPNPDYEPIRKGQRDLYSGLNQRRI
T2 sequence (P09693 23-182, chain 2 of 3): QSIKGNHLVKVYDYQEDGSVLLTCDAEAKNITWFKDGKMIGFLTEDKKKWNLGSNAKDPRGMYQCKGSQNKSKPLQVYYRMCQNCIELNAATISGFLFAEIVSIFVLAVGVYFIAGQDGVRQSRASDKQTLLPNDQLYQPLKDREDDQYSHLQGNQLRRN
T2 sequence (P04234 22-171, chain 3 of 3): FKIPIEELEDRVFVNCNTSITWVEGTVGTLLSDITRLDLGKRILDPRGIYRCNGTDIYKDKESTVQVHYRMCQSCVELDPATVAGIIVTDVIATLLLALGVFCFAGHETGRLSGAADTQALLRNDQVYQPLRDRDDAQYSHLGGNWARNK

B1: CD3xFLT3 bispecific antibody 118BA #3C (bispecific antibody, human IgG1, lambda)
heavy: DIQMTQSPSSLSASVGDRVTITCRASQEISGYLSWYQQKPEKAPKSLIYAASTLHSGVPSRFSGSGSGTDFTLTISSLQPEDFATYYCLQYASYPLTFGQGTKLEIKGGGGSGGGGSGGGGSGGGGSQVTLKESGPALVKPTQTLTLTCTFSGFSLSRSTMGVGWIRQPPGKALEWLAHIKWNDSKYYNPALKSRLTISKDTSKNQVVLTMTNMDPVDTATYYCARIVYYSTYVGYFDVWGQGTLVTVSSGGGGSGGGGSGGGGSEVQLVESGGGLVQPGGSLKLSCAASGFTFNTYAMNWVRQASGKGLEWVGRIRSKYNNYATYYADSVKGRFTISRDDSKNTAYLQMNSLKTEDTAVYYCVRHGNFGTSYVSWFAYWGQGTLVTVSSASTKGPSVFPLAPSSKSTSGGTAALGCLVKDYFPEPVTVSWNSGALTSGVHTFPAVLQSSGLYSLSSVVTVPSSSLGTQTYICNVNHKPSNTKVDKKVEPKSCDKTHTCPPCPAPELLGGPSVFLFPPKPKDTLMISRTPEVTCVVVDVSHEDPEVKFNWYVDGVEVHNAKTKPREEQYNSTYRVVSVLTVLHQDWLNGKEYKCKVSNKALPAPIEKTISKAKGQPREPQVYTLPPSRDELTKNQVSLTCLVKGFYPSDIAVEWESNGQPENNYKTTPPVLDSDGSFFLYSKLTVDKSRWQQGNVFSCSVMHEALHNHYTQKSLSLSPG
light: QAVVTQEPSFSVSPGGTVTLTCGSSTGAVTTSNYANWVQQTPGQAFRGLIGGTNKRSSGVPDRFSGSLLGDKAALTITGAQADDESDYYCALWFSNHWVFGGGTKLTVLGGQPKAAPSVTLFPPSSEELQANKATLVCLISDFYPGAVTVAWKADSSPVKAGVETTTPSKQSNNKYAASSYLSLTPEQWKSHRSYSCQVTHEGSTVEKTVAPTECS
As usually defined, the EC50 is the concentration at which the effect is half-maximal. With B1, in assay [1], the “EC50 of cytotoxicity against REH cells” value is 0.013 nM. For the same molecule, the EC50 in assay [2] turned out to be 0.9 nM; in assay [3], 32 nM.

B2: CD3xFLT3 bispecific antibody 118BA #3A (bispecific antibody, human IgG1, lambda)
heavy: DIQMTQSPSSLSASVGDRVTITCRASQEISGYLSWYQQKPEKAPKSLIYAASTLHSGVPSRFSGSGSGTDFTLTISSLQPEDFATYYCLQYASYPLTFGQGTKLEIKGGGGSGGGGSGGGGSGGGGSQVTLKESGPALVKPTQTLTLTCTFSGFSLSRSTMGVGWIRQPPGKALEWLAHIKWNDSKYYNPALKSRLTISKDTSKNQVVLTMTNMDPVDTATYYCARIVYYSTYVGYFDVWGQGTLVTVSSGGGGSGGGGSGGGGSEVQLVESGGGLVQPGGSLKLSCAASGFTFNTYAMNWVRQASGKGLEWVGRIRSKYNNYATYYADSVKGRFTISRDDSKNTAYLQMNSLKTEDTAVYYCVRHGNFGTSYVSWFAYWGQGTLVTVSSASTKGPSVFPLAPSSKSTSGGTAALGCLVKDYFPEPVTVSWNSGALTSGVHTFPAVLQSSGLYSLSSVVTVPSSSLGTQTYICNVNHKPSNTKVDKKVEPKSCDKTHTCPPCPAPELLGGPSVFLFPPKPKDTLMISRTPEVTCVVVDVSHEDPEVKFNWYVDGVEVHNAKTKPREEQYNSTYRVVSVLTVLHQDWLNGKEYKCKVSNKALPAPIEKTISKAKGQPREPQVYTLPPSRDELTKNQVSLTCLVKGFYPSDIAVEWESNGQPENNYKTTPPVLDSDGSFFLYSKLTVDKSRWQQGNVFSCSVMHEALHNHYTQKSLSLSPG
light: QAVVTQEPSFSVSPGGTVTLTCGSSTGAVTTSNYANWVQQTPGQAFRGLIGGTNKRSSGVPDRFSGSLLGDKAALTITGAQADDESDYYCALWYSNLWVFGGGTKLTVLGGQPKAAPSVTLFPPSSEELQANKATLVCLISDFYPGAVTVAWKADSSPVKAGVETTTPSKQSNNKYAASSYLSLTPEQWKSHRSYSCQVTHEGSTVEKTVAPTECS
For the molecule B2, the “EC50 of cytotoxicity against REH cells” value in assay [1] was determined as 0.013 nM. Moreover, the EC50 in assay [2] was 1.18 nM; in assay [3], 15.5 nM.

B3: CD3xFLT3 bispecific antibody 118BA #3a1 (bispecific antibody, human IgG1, lambda)
heavy: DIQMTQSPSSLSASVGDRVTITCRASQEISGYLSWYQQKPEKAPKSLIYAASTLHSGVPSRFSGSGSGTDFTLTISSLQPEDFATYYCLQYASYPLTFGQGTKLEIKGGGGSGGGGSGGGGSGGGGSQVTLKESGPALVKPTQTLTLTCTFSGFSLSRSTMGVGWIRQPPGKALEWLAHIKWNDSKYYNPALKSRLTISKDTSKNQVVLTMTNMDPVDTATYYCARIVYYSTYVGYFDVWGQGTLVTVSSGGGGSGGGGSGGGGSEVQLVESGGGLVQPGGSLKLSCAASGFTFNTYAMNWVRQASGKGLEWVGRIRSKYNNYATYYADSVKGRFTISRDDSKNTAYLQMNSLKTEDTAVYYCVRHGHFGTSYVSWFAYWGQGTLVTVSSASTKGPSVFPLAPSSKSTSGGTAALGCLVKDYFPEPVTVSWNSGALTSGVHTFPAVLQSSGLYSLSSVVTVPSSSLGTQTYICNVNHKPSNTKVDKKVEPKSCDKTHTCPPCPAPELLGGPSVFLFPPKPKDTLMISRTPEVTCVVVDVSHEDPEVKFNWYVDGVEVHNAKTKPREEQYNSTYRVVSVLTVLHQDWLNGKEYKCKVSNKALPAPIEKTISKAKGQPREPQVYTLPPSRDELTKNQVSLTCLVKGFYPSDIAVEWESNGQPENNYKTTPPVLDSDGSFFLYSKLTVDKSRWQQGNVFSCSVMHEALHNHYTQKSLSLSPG
light: QAVVTQEPSFSVSPGGTVTLTCGSSTGAVTTSNYANWVQQTPGQAFRGLIGGTNKRSSGVPDRFSGSLLGDKAALTITGAQADDESDYYCALWFSNHWVFGGGTKLTVLGGQPKAAPSVTLFPPSSEELQANKATLVCLISDFYPGAVTVAWKADSSPVKAGVETTTPSKQSNNKYAASSYLSLTPEQWKSHRSYSCQVTHEGSTVEKTVAPTECS
For the molecule B3, in assay [1], the “EC50 of cytotoxicity against REH cells” value came out at 0.33 nM. Further, the EC50 in assay [2] is 1.17 nM; in assay [4], 0.0331 µg/mL and 0.16 nM.

B4: CD3xFLT3 bispecific antibody 118BA #3B (bispecific antibody, human IgG1, lambda)
heavy: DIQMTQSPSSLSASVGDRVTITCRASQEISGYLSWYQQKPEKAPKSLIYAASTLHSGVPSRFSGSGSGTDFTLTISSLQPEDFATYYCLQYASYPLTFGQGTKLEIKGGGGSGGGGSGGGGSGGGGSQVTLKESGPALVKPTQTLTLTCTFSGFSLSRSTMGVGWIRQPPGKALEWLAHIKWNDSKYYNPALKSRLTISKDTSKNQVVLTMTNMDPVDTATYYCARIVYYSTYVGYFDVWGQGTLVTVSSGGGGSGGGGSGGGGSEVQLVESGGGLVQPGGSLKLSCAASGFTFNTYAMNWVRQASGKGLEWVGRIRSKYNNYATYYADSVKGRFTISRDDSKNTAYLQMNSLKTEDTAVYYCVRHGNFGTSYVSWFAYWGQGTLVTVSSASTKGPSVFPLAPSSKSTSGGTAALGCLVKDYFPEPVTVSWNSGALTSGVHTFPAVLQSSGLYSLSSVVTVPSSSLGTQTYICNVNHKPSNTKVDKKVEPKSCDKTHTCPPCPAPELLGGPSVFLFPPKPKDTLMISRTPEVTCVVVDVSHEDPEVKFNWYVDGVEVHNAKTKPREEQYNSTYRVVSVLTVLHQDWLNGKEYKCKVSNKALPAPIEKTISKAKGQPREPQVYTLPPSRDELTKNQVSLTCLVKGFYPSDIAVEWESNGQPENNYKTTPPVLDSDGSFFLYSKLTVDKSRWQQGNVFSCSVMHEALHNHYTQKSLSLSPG
light: QAVVTQEPSFSVSPGGTVTLTCGSSTGAVTTSNYANWVQQTPGQAFRGLIGGTNKRVSGVPDRFSGSLLGDKAALTITGAQADDESDYYCALWFSNHWVFGGGTKLTVLGGQPKAAPSVTLFPPSSEELQANKATLVCLISDFYPGAVTVAWKADSSPVKAGVETTTPSKQSNNKYAASSYLSLTPEQWKSHRSYSCQVTHEGSTVEKTVAPTECS
Take B4: the “EC50 of cytotoxicity against REH cells” value in assay [1] worked out at 0.017 nM. In addition, the EC50 was determined as 1.23 nM in assay [2] and 13.6 nM in assay [3].

B5: chimeric monoclonal anti-CD3 IgG SP34 clone (antibody, V domains shown)
VH: EVQLVESGGGLVQPKGSLKLSCAASGFTFNTYAMNWVRQAPGKGLEWVARIRSKYNNYATYYADSVKDRFTISRDDSQSILYLQMNNLKTEDTAMYYCVRHGNFGNSYVSWFAYWGQGTLVTVSS
VL: QAVVTQESALTTSPGETVTLTCRSSTGAVTTSNYANWVQEKPDHLFTGLIGGTNKRAPGVPARFSGSLIGDKAALTITGAQTEDEAIYFCALWYSNLWVFGGGTKLTVL
For the molecule B5, the EC50 in assay [5] came out at 3.2 nM.

B6: humanized SP34 variant 2 (antibody, human IgG1, V domains shown)
VH: EVQLVESGGGLVQPGGSLKLSCAASGFTFNTYAMNWVRQASGKGLEWVGRIRSKYNNYATYYADSVKGRFTISRDDSKSTAYLQMNSLKTEDTAVYYCVRHGNFGNSYVSWFAYWGQGTLVTVSS
VL: QAVVTQEPSLTVSPGGTVTLTCGSSTGAVTTSNYANWVQQKPGQAFRTLIGGTNKKHPWTPARFSGSLLGGKAALTLSGAQPEDEAEYYCALWYSNLWVFGGGTKLTVLG
notes: also called humSP34-v2; humanized anti-CD3 SP34 variant 2
In assay [6], B6 returned a concentration giving a half-maximal response (EC50) of 2.38 nM.

B7: humanized SP34 variant 6 (antibody, human IgG1, V domains shown)
VH: EVQLVESGGGLVQPGGSLKLSCAASGFTFNTYAMNWVRQASGKGLEWVGRIRSKYNNYATYYADSVKGRFTISRDDSKNTAYLQMNSLKTEDTAVYYCVRHGNFGNSYVSWFAYWGQGTLVTVSS
VL: QAVVTQEPSFSVSPGGTVTLTCGSSTGAVTTSNYANWVQQTPGQAFRGLIGGTNKRSSGVPDRFSGSLLGDKAALTITGAQADDESDYYCALWYSNLWVFGGGTKLTVLG
notes: also called humSP34-v6; humanized anti-CD3 SP34 variant 6
B7 gave an EC50 in assay [6] of 3.2 nM.

B8: humanized 118BA variant 1 (antibody, V domains shown)
VH: QVTLKESGPTLVKPTQTLTLTCTFSGFSLSTSTMGVGWIRQPPGKALEWLAHILWNDSKRYNPSLKSRLTITKDTSKKQVVLTMTNMDPVDTATYYCARIVYYSTYVGYFDVWGQGTTVTVSS
VL: DIQMTQSPSSLSASVGDRVTITCRASQEISGYLSWLQQKPGKAIKRLIYAASTLQSGVPSRFSGSRSGSDYTLTISSLQPEDFATYYCLQYASYPFTFGQGTKLEIK
notes: detected with anti-human IgG Fc; also called 18BA-v1; 1-18BA-v1
For B8, the 50% effective concentration (EC50) in assay [7] is 0.4 nM.

B9: humanized 118BA variant 5 (antibody, V domains shown)
VH: QITLKESGPTLVKPTQTLTLTCTFSGFSLSTSTMGVGWIRQPPGKALEWLAHILWNDDKRYGPSLKSRLTITKDTSKKQVVLTMTNMDPVDTATYYCARIVYYSTYVGYFDVWGQGTTVTVSS
VL: EIVMTQSPGTLSLSPGERATLSCRASQEISGYLSWLQQKPGQAIRRLIYAASTRATGIPDRFSGSRSGSDYTLTISRLEPEDFAVYYCLQYASYPFTFGQGTKLEIK
notes: detected with anti-human IgG Fc; also called 18BA-v5
As for B9, in assay [7], the EC50 is 0.72 nM.

B10: chimeric monoclonal anti-FLT3 antibody 118BA (antibody, V domains shown)
VH: QVTLKESGPGILQPSQTLSLTCSFSGFSLSTSTMGVGWIRQPSGKGLEWLLHILWNDSKYYNPALKSRLTISKDTYNKQVFLKIANVDTADTATYYCARIVYYSTYVGYFDVWGAGTTVTVSS
VL: DIQMTQSPSSLSASLGERVSLTCRASQEISGYLSWLQQKPDGTIKRLIYAASTLHSGVPKRFSGSRSGSDYSLTISRLESEDVADYYCLQYASYPFTFGSGTKLEIK
In assay [8], B10 came in with a 50% effective concentration (EC50) of 0.77 nM.

The values are drawn from patent US20240368288A1 (HEMOGENYX PHARMACEUTICALS, published 2024).
